Data reported in patent US20260374838 (published 2026).
Substitutions are numbered along the chain they refer to. Names and notes keep the numbering of the source. Like-named read-outs stand apart in the source and are kept apart here.

Columns and labels:
murine CD200R1 [1] = target: T1, murine CD200R1 (mouse, UniProt Q9ES57); experiment: SPR, 25C
T1 chain: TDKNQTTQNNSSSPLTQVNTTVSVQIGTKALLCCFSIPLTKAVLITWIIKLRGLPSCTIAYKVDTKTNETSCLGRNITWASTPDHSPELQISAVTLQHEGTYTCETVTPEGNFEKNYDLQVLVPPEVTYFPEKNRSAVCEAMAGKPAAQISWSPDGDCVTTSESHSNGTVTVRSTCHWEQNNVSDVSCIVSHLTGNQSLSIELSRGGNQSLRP

human CD200R1L = target: T2, human CD200R1L (human, UniProt Q6Q8B3); experiment: SPR, 25C
T2 chain: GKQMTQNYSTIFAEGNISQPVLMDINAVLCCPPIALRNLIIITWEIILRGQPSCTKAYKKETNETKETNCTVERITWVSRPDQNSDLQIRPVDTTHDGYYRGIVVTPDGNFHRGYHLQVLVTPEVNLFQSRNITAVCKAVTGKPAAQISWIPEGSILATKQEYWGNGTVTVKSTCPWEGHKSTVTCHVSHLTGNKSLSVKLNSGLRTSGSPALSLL

human CD200R [2] = target: T3, human CD200R (human, UniProt Q8TD46); experiment: SPR, 25C
T3 chain: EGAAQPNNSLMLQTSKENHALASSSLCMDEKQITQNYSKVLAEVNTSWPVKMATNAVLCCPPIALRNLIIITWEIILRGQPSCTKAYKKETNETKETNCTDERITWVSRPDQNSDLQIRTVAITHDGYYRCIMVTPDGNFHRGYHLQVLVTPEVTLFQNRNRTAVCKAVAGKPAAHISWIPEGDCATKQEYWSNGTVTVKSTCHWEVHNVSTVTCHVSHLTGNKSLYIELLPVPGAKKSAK

human CD200R [3] = target: T3, human CD200R; experiment: SPR, 25C
murine CD200R1 [4] = target: T1, murine CD200R1; experiment: SPR

B1: DS-20 (antibody)
chain: QVQVVTQDEREQLYTPASLKCSLQNAQEALIVTWQKKKAVSPENMVTFSENHGVVIQPAYKDKINITQLGLQNSTITFWNITLEDEGCYMCLFNTFGFGKISGTACLTVYVQPIVSLHYKFSEDHLNITCSATARPAPMVFWKVPRSGIENSTVTLSHPNGTTSVTSILHIKDPKNQVGKEVICQVLHLGTVTDFKQTVNKG
modifications: wild-type CD200 ectodomain fused to human IgG1 Fc (dimer); UniProt numbering
- binding result (murine CD200R1 [1]): no binding
- binding result (human CD200R1L): no binding
- Kd (human CD200R [2]): 111 nM

B2: DS-155 (antibody)
chain: B1 chain
modifications: wild-type CD200 ectodomain fused to human IgG4 S228P Fc (dimer); UniProt numbering
- Kd (human CD200R [3]): 179 nM
- binding result (murine CD200R1 [1]): no binding
- binding result (human CD200R1L): no binding
- Kd (human CD200R [2]): 179 nM

B3: DS-227 (protein)
chain: QVEVVTQDERKALHTTASLRCSLKTSQEPLIVTWQKKKAVSPENMVTYSKTYGVVIQPAYKDRINVTELGLWNSSITFWNTTLEDEGCYMCLFNIFGSQKVSGTACLTLYVQPIVHLHYNYFEDHLNITCSATARPAPAISWKGTGTGIENSTESHFHSNGTTSVTSILRVKDPKTQVGKEVICQVLYLGNVIDYKQSLDKG
- Kd (murine CD200R1 [4]): 43.3 nM

B4: DS-198 (protein)
chain: B3 chain with Y52H, I95T
modifications: wild-type murine CD200 fused to murine IgG2a Fc
- Kd (murine CD200R1 [4]): 584 nM

B5: DS-118 (antibody)
chain: QVQVVTQDEREQLYTPASLKCSLQNAQEALIVTWQKKKAVSPENMVTFSENHGVVIQPAYKDKINITQLGLQNSTITFWNITLEDEGCYMCLFNTFGFGYYSGTACLTVYVQPIVSLHYKFSEDHLNITCSATARPAPMVFWKVPRSGIENSTVTLSHPNGTTSVTSILHIKDPKNQVGKEVICQVLHLGTVTDFKQTVNKGPPCPPCPAPEFLGGPSVFLFPPKPKDTLMISRTPEVTCVVVDVSQEDPEVQFNWYVDGVEVHNAKTKPREEQFNSTYRVVSVLTVLHQDWLNGKEYKCKVSNKGLPSSIEKTISKAKGQPREPQVYTLPPSQEEMTKNQVSLTCLVKGFYPSDIAVEWESNGQPENNYKTTPPVLDSDGSFFLYSRLTVDKSRWQEGNVFSCSVMHEALHNHYTQKSLSLSLGK
- Kd (human CD200R [3]): 1.3 nM
- binding result (murine CD200R1 [1]): no binding
- binding result (human CD200R1L): no binding
- Kd (human CD200R [2]): 1.3 nM
